Laboratory results: publication PMC2762480

How the values were obtained:
[1] = biological target: s-dEGFRΔV (Drosophila EGF receptor extracellular region, domains I to IV) (Drosophila melanogaster); assay: AUC
[2] = biological target: s-dEGFRΔV/Spitz complex (Drosophila melanogaster) (UniProt Q01083); assay: AUC

| Substance | Kd [1] [µM] | stoichiometry N [2] |
| --- | --- | --- |
| s-dEGFRΔV (Drosophila EGF receptor extracellular region, domains I to IV) (domain or fragment) | 40 |  |
| s-dEGFRΔV/Spitz complex (from UniProt Q01083 29-143) |  | 2 |
